# Assay results from patent US12383572B2, “Administration of an anti-activin-a compound to a subject” (AMGEN INC., priority 2013, dated 2025).
# Assays:
# [1] = system: TOV-21G, BAEC, MRC-5, CCD-Lu, U937 and THP-1 cultures; test: Real-time RT-PCR of VEGF, Ang-1 and βA in cell cultures treated with recombinant activin-A; format: cell-based; conditions: BAEC
# Excerpt: ID NO: 291), [NT] ID NO: 292), and TaqMan probe [NT] ID NO: 293).
# [2] = system: TOV-21G, MRC-5, CCD-Lu and THP-1 cell cultures; test: VEGF and Ang-1 ELISA of cell culture medium after recombinant activin-A; format: cell-based, human; conditions: TOV21G, MRC-5, CCD-Lu and TPH-1 cells treated with activin-A
# Protocol: The serum VEGF levels in inh-KO mice were measured by using immunoassay kit (R & D Systems), and the levels of human VEGF and Ang-1 in cell line culture medium were quantified using ELISA kits purchased from Invitrogen (VEGF) and R & D Systems (Ang-1), by following the manufacturers' recommended protocols.
molecule,measurement,setting,value
"recombinant activin-A: Recombinant activin-A was produced using mammalian expression system (Amgen Inc) (protein, UniProt P08476 311-426, looked up) Inhibin beta A chain: GLECDGKVNICCKKQFFVSFKDIGWNDWIIAPSGYHANYCEGECPSHIAGTSGSSLSFHSTVINHYRMRGHSPFANLKSCCVPTKLRPMSMLYYDDGQNIIKKDIQNMIVEECGCS",Ang-1 mRNA (real-time PCR),[1]; MRC-5 and CCD-Lu cultures treated with recombinant activin-A,"also of Ang-1 mRNA in BAEC, MRC-5 and CCD-Lu cultures"
same,endogenous activin-A (βA) mRNA expression,"[1]; TOV21G, MRC-5, CCD-Lu, U937 and THP-1 cultures, recombinant activin-A added",markedly upregulated βA expression in all these cells
same,VEGF transcripts (real-time PCR),"[1]; TOV-21G, MRC-5 or CCD-Lu, U937 cultures treated with recombinant activin-A",marked increases in the levels of VEGF transcripts in all these cultures
same,release of VEGF into the culture medium (ELISA),[2],increased the release of VEGF
